Our source for the switch fluorescence ratio values is the supplement of paper PMC10126150.

± gives the standard deviation of the averaged measurements.
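Also: ATP exposure 15 min at 22 °C before imaging.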

For the series, the system named is ATP. In words: switch fluorescence ratio, 500 uM ATP over buffer (Cy3 cluster intensity, sum of 5 cycles each) (fold (ratio)); higher = stronger signal-on switching upon ATP binding; sequences stand for … in TCGTCGGCAGCGTCAGATGTGTATAAGAGACAGTTTTTTTTTTTTTTTTTTTTTTTTT…TC. The conditions noted are these: aptamer strand: ATP DNA aptamer (quencher-CACCTGGGGGAGTATTGCGGAGGAAGG + anchor), 100 nM annealed; ATP concentration: 500 uM. The method, boiled down:
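The quencher-labelled ATP aptamer, at 100 nM, was annealed to Cy3-labelled switching-strand clusters on a modified Illumina MiSeq flow-cell. The clusters were imaged in selection buffer, then after 15 min with 500 uM ATP at 22 °C, and this buffer/ATP cycle ran five times with NaOH stripping and re-annealing between runs. Per-cluster fluorescence ratios, summed target-cycle over summed buffer-cycle Cy3 intensity, were averaged per switch-domain sequence. Clusters outside 100-1000 RFU were excluded.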
On to ACACGGGGAA, for which the switch fluorescence ratio stood at 1.0184 ± 0.00046.
The result for TGGTGTATGT reads 0.995 ± 0.022.
For GGTCAAGTTG the value was 0.961 ± 0.019; for GAAAAATGAC, 0.999 ± 0.021; for CTTTAAAAAG, 1 ± 0.059.
For TTTTTTGTGC the value was 0.9901 ± 0.0052.
Take TCCAGGACCA: the switch fluorescence ratio came to 1.03 ± 0.042.
As for CCAAGGGGCG, the switch fluorescence ratio amounted to 0.987 ± 0.0077.
For the sequence CCTGAAGGCA, the switch fluorescence ratio was determined as 1 ± 0.011.
For GAGGCCGCTA the value was 1.84 ± 0.043; for GGGGACGTAC, 1.47 ± 0.22.
Turning to ATCCTTCTAA, the switch fluorescence ratio stood at 1.05 ± 0.018.
The result for GCGTTGGCCA reads 1.01 ± 0.016.
For TAGGATTGGG the value was 0.9894 ± 0.0053; for AGTGGGTGGG, 0.9921 ± 0.0049.
Turning to GCTTGGGGGT, the switch fluorescence ratio came out at 0.987 ± 0.018.
The result for AAAAACTGAA reads 1.01 ± 0.02; that for TTTAGATATA, 1.031 ± 0.0011; that for TCAGGGGGAG, 1.02 ± 0.054.
With TTACGGGGTA, the switch fluorescence ratio worked out at 1 ± 0.011.
On to TTGTGGGGGC, for which the switch fluorescence ratio amounted to 0.991 ± 0.038.
In the case of ACTGATTTGT, the switch fluorescence ratio came out at 0.996 ± 0.048.
The result for TTTTAAACAC reads 1.07 ± 0.11; that for AAGATTAGTT, 0.998 ± 0.017; that for CCGGGCGGTG, 1.04 ± 0.021.
As to GAGAGCCGAA, the switch fluorescence ratio came out at 1.02 ± 0.062.
In the case of CGGAGGCAAG, the switch fluorescence ratio amounted to 1.14 ± 0.045.
On to GAAGGGGGAT, for which the switch fluorescence ratio was 1.02 ± 0.051.
The result for GAGGGGTTAG reads 0.978 ± 0.014; that for TCCGCAGAG, 6.2 ± 0.49; that for GCGTAAATTG, 0.9923 ± 0.0053.
Regarding ATAATTTAGT, the switch fluorescence ratio was found to be 0.982 ± 0.028.
The result for TCTGAGTGCG reads 1.02 ± 0.02; that for TTCGCCGGTT, 1.02 ± 0.0021; that for CGACATTGAG, 0.967 ± 0.012.
For TTTCTGATTT the value was 0.983 ± 0.022.
The result for TCTCTAGCTG reads 1.05 ± 0.041; that for TATTAAACCG, 1.06 ± 0.013.
Turning to GTATAGGGAA, the switch fluorescence ratio is 1.004 ± 0.0071.
In the case of TTGGGGTTCG, the switch fluorescence ratio came to 0.98 ± 0.029.
For CGGATCGATT the value was 0.9907 ± 0.0018; for TCAGCAGGGG, 2.67 ± 1.9; for GCGTCGGGGG, 1.01 ± 0.028.
With TAGATATCTG, the switch fluorescence ratio came to 0.974 ± 0.0098.
The result for AAAGTAGAGG reads 0.969 ± 0.029; that for GAGTCTAAGT, 0.996 ± 0.026.
In the case of AGCTTCTTAT, the switch fluorescence ratio came out at 1.03 ± 0.028.
Take GGGGTTGGTA: the switch fluorescence ratio was 1.005 ± 0.006.
The result for TACGAGGTGT reads 1.06 ± 0.027; that for GATTGATTGC, 1 ± 0.033; that for GACGGTGTGC, 1.077 ± 0.0059.
The result for TTCTTGGGTT reads 0.989 ± 0.031; that for TTAGGGTCGT, 1.01 ± 0.018.
As for TGTTATTGTT, the switch fluorescence ratio worked out at 1.03 ± 0.012.
Turning to TCGAAAGTTA, the switch fluorescence ratio was 1.04 ± 0.022.
For CGGTGGGTAA the value was 1.01 ± 0.026.
For TGATGGTAGG the value was 0.981 ± 0.031.
In the case of TTTTTATACT, the switch fluorescence ratio is 1.02 ± 0.027.
The result for AGTTTGGCGG reads 0.923 ± 0.084; that for CAGATTCTGT, 0.973 ± 0.023; that for ACTATGAGCT, 1.04 ± 0.041.
The result for GGGGGATAGA reads 1.03 ± 0.034; that for ATCAATTGTC, 1.07 ± 0.025; that for GTGAGGGGTA, 0.975 ± 0.033.
For ATACGGGAGT the value was 1 ± 0.0018; for TTTTTAAGGG, 0.996 ± 0.032; for CTCTTACTTT, 0.9862 ± 0.0084.
On to ATGTTATTGC, for which the switch fluorescence ratio turned out to be 1 ± 0.022.
The result for CTCTGGGAGG reads 0.995 ± 0.021; that for TGGGGACCGT, 1 ± 0.03.
With TACCGTGGGG, the switch fluorescence ratio worked out at 1.05 ± 0.038.
For TCTTGGTCAG the value was 0.991 ± 0.025.
The result for CTTAAATCTG reads 0.974 ± 0.084; that for TTATTGATGG, 0.99 ± 0.019; that for TTTGGGGTAT, 0.995 ± 0.028.
For CGTTTGTTGC the value was 0.974 ± 0.034.
Take GTGGGGAATA: the switch fluorescence ratio stood at 1.03 ± 0.043.
For TATATATATG the value was 0.955 ± 0.031; for AAAGGCTGGG, 1.04 ± 0.087.
